In patent US20220411523A1:

Legend:
[1] = target: Human 4-1BB + Mouse 4-1BB domain1,2A,2B(aa24-86) (human; mouse); experiment: FACS, transiently transfected Expi293 cells (cell A)
[2] = target: Human 4-1BB + Mouse 4-1BB domain3B,4A,4B(aa97-159) (human; mouse) (UniProt Q07011); experiment: FACS, transiently transfected Expi293 cells (cell D)
[3] = target: Human 4-1BB + Mouse 4-1BB domain3A,3B,4A(aa87-133) (human; mouse) (UniProt Q07011); experiment: FACS, transiently transfected Expi293 cells (cell C)
[4] = target: human 4-1BB full length, on the cell surface (human) (UniProt Q07011); experiment: FACS, transiently transfected Expi293 cells (WT)
[5] = target: h4-1BB-His antigen (Acro company, product number: Q07011-1) (human) (UniProt Q07011); experiment: BLI (Fortebio), h4-1BB-His
[6] = target: Human 4-1BB + Mouse 4-1BB domain1,4B,NF(aa24-46,aa139-186) (human; mouse); experiment: FACS, transiently transfected Expi293 cells (cell F)
[7] = target: Human 4-1BB + Mouse 4-1BB domain4A,4B,NF(aa119-186) (human; mouse); experiment: FACS, transiently transfected Expi293 cells (cell E)
[8] = target: Human 4-1BB + Mouse 4-1BB domain2B,3A,3B(aa64-118) (human; mouse) (UniProt Q07011); experiment: FACS, transiently transfected Expi293 cells (cell B)
[9] = target: human 4-1BB full length, on the cell surface (human) (UniProt Q07011); experiment: FACS competition, CHO-K1-hu4-1BB; labelled Bio-4-1BBL 2 µg/ml fixed, competitor varied
[10] = target: human 4-1BB full length, on the cell surface (human) (UniProt Q07011); experiment: FACS competition, CHO-K1-hu4-1BB; labelled Bio-Hanke10F4 1.5 µg/ml fixed, competitor varied

Chain of human 4-1BBL-hIgG (Fc fusion) (chain, part): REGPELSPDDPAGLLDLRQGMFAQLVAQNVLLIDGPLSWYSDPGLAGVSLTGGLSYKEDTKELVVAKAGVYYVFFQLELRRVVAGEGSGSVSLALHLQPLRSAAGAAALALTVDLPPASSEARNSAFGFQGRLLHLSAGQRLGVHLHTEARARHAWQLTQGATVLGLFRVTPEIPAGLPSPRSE
Chain of Urelumab (antibody) (VH): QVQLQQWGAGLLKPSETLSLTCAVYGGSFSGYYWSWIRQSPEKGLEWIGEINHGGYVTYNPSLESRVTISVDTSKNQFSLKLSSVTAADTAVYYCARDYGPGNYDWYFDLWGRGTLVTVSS
Chain of Urelumab (antibody) (VL): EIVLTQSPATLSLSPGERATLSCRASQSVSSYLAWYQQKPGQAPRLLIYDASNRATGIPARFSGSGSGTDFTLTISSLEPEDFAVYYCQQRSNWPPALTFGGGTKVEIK
Chain of human 4-1BB full length, on the cell surface (human) (Q07011 24-255 limits assumed): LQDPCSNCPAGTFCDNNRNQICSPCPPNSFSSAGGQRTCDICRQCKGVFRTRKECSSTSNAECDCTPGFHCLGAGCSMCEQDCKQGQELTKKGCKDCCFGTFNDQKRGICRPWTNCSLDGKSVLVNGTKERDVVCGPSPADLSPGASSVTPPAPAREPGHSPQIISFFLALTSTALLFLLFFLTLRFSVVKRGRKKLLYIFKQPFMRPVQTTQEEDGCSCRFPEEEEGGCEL
Chain of Human 4-1BB + Mouse 4-1BB domain1,2A,2B(aa24-86) (human; mouse) (chain, as listed by the source): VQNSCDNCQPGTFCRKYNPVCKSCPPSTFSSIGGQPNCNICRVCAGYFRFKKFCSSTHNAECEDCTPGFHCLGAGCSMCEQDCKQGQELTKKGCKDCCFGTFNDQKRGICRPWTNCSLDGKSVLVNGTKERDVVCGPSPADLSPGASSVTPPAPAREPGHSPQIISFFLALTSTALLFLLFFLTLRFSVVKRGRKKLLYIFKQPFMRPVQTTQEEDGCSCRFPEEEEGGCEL
Chain of h4-1BB-His antigen (Acro company, product number: Q07011-1) (human) (Q07011 24-186): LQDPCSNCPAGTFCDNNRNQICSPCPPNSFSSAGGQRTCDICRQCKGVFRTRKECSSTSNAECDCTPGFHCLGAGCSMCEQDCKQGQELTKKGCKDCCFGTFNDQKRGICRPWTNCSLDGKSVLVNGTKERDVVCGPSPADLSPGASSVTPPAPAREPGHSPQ
Chain of Human 4-1BB + Mouse 4-1BB domain3B,4A,4B(aa97-159) (human; mouse) (Q07011 other isoform, or with tags, fused parts or gaps): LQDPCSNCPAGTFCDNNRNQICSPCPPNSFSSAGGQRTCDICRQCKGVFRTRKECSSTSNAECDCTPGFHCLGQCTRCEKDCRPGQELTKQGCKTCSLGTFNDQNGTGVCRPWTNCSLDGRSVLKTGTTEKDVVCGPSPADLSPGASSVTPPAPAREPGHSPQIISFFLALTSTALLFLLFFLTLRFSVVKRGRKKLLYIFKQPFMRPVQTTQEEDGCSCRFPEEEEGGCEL
Chain of Human 4-1BB + Mouse 4-1BB domain2B,3A,3B(aa64-118) (human; mouse) (Q07011 other isoform, or with tags, fused parts or gaps): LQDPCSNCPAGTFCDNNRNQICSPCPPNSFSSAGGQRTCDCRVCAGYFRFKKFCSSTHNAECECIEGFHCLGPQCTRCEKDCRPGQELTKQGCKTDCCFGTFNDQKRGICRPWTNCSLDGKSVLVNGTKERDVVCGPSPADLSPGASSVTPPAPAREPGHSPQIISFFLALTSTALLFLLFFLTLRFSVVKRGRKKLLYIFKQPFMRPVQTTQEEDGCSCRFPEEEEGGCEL
Chain of Human 4-1BB + Mouse 4-1BB domain1,4B,NF(aa24-46,aa139-186) (human; mouse) (chain, as listed by the source): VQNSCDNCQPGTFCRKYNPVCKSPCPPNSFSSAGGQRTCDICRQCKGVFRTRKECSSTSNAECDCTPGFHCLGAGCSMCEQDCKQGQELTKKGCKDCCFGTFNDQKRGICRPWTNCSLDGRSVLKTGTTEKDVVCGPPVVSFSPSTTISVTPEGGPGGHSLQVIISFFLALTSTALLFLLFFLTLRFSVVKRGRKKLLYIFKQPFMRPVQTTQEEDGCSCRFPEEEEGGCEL
Chain of Human 4-1BB + Mouse 4-1BB domain4A,4B,NF(aa119-186) (human; mouse) (chain, as listed by the source): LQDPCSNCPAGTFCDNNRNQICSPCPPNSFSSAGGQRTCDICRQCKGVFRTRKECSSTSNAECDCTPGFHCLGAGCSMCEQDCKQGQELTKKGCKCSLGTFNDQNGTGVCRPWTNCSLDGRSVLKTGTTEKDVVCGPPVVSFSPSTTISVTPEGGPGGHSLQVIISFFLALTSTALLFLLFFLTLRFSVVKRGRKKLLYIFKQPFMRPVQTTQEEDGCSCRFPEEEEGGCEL
Chain of Human 4-1BB + Mouse 4-1BB domain3A,3B,4A(aa87-133) (human; mouse) (Q07011 other isoform, or with tags, fused parts or gaps): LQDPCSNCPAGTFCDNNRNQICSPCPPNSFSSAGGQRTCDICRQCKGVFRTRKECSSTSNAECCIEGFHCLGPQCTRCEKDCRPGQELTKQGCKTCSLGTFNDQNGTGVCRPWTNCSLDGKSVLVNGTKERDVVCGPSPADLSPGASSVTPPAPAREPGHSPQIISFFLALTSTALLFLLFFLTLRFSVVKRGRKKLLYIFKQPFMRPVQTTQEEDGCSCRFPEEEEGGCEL

| Substance | Mean fluorescence intensity [1] | Mean fluorescence intensity [2] | Mean fluorescence intensity [3] | Mean fluorescence intensity [4] | Kd [5] [nM] | Mean fluorescence intensity [6] | Mean fluorescence intensity [7] | Mean fluorescence intensity [8] | FACS signal of Bio-4-1BBL at (B:A) Ratio 0.03906 [9] | FACS signal of Bio-4-1BBL at (B:A) Ratio 0.15625 [9] | FACS signal of Bio-4-1BBL at (B:A) Ratio 0.625 [9] | FACS signal of Bio-4-1BBL at (B:A) Ratio 2.5 [9] | FACS signal of Bio-4-1BBL at (B:A) Ratio 10 [9] | FACS signal of Bio-4-1BBL at (B:A) Ratio 40 [9] | FACS signal of Bio-Hanke10F4 at (B:A) Ratio 0.058593 [10] | FACS signal of Bio-Hanke10F4 at (B:A) Ratio 0.23437 [10] | FACS signal of Bio-Hanke10F4 at (B:A) Ratio 0.9375 [10] | FACS signal of Bio-Hanke10F4 at (B:A) Ratio 3.75 [10] | FACS signal of Bio-Hanke10F4 at (B:A) Ratio 15 [10] | FACS signal of Bio-Hanke10F4 at (B:A) Ratio 60 [10] |
| --- | --- | --- | --- | --- | --- | --- | --- | --- | --- | --- | --- | --- | --- | --- | --- | --- | --- | --- | --- | --- |
| Urelumab (antibody) | 1820 | 123000 | 193000 | 146000 | 5.76 | 4910 | 194000 | 313000 | – | – | – | – | – | – | – | – | – | – | – | – |
| Utomilumab (antibody) | 19000 | – | – | – | – | – | – | – | – | – | – | – | – | – | – | – | – | – | – | – |
| human 4-1BBL-hIgG (Fc fusion) | – | – | – | – | – | – | – | – | 7740 | 7910 | 6850 | 6320 | 3770 | 3220 | 6310 | 6580 | 4860 | 2290 | 584 | 254 |
